Reference: patent US6458552B1, “Metalloprotease peptide substrates and methods” (Ortho-McNeil Pharmaceutical, Inc., priority 2000, dated 2002)

Columns and labels:
[1] = biological target: T1, ADAM15 (Homo sapiens, UniProt Q13444); test: FRET peptide substrate screening, ADAM15; format: biochemical; design: key: from one star (*) to five stars (*****) to indicate weaker to more potent substrates respectively; from one star (*) to five stars (*****) to indicate weaker to more potent substrates respectively; from one star (*) to five stars (*****) to indicate weaker to more potent substrates respectively; from one star (*) to five stars (*****) to indicate weaker to more potent substrates respectively; (—) = no detectable activity; settings: FRET peptide 20 uM, room temperature
T1 construct: FLAG (C); made in house; host or cells: Sf9 insect cells (baculovirus, pFastBac1)
T1 sequence (Q13444 213-414 limits assumed): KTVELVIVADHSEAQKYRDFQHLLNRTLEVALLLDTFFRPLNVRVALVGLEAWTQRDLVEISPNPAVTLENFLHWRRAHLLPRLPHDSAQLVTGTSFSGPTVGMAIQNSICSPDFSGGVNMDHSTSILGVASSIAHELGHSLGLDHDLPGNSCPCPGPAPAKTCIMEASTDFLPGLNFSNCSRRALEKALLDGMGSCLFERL
Text: (§1) Forty nine different peptides were synthesized for testing protease activity. The peptides comprised (i) a collection of substrates for other proteases, as well as (ii) a number of sequences corresponding to membrane proximal cleavage sites of various proteins postulated to be released by metalloproteases (including those published by (Roghani et al., 1999) for ADAM9/MDC9). In order to use the principle of fluorescence resonance energy transfer, or FRET, for the assay, the peptides were labelled at the C-terminus with Dabcyl and at the N-terminus with Edans. Thus cleavage of the peptides can be monitored by the increase in Edans fluorescence at 460 nm (excitation 360 nm) as a result of the decrease in proximity of the Dabcyl quencher. The assay was performed by diluting the ADAM8, ADAM15, MDC-L, or ADAM17 (50 to 100 ng of protein, one to two picomoles) in assay buffer, 10 mM HEPES, pH 7.5, containing 0.001% Brij35. The reaction was initiated by the addition of peptide substrate to a final concentration of 20 uM. The assays were typically run for 20 to 60 minutes at room temperature and the slope of the kinetic increase in fluorescence was determined to calculate the rate of the reaction. If necessary, it was possible to stop the reaction at a certain time by the addition of 1/10th volume of 1M NaOAc (sodium acetate), pH 3.5.
(§2) This peptide was cleaved by all enzymes, and thus was chosen to represent a standard by which to compare the relative activity of the various enzymes for their potential to cleave the various peptide substrates.

[2] = biological target: T2, ADAM8 (Homo sapiens, UniProt P78325); test: FRET peptide substrate screening, ADAM8; format: biochemical; design: key: from one star (*) to five stars (*****) to indicate weaker to more potent substrates respectively; from one star (*) to five stars (*****) to indicate weaker to more potent substrates respectively; from one star (*) to five stars (*****) to indicate weaker to more potent substrates respectively; from one star (*) to five stars (*****) to indicate weaker to more potent substrates respectively; (—) = no detectable activity; settings: FRET peptide 20 uM, room temperature
T2 construct: FLAG (C); made in house; host or cells: Sf9 insect cells (baculovirus, pFastBac1)
T2 sequence (P78325 200-400 limits assumed): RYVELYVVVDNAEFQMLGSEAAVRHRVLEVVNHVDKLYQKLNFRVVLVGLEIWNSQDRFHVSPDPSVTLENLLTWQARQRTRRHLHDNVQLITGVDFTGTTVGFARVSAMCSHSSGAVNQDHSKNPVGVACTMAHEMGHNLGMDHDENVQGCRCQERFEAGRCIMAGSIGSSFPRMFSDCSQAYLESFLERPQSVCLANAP
Text: as §1, §2

[3] = biological target: T3, MDC-L (Homo sapiens, UniProt Q9UKQ2); test: FRET peptide substrate screening, MDC-L; format: biochemical; design: key: from one star (*) to five stars (*****) to indicate weaker to more potent substrates respectively; from one star (*) to five stars (*****) to indicate weaker to more potent substrates respectively; from one star (*) to five stars (*****) to indicate weaker to more potent substrates respectively; from one star (*) to five stars (*****) to indicate weaker to more potent substrates respectively; (—) = no detectable activity; settings: FRET peptide 20 uM, room temperature
T3 construct: FLAG (C); made in house; host or cells: Sf9 insect cells (baculovirus, pFastBac1)
T3 sequence (Q9UKQ2 204-399 limits assumed): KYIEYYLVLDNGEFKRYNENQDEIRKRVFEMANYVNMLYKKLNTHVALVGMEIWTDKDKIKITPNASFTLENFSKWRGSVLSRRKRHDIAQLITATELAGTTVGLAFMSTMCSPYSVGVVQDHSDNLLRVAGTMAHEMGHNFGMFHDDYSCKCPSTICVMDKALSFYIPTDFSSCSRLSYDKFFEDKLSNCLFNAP
Text: as §1, §2

[4] = biological target: T4, ADAM17 (Homo sapiens, UniProt P78536); test: FRET peptide substrate screening, ADAM17; format: biochemical; design: key: from one star (*) to five stars (*****) to indicate weaker to more potent substrates respectively; from one star (*) to five stars (*****) to indicate weaker to more potent substrates respectively; from one star (*) to five stars (*****) to indicate weaker to more potent substrates respectively; from one star (*) to five stars (*****) to indicate weaker to more potent substrates respectively; (—) = no detectable activity; settings: FRET peptide 20 uM, room temperature
T4 construct: made in house
T4 sequence (P78536 215-824, species assumed): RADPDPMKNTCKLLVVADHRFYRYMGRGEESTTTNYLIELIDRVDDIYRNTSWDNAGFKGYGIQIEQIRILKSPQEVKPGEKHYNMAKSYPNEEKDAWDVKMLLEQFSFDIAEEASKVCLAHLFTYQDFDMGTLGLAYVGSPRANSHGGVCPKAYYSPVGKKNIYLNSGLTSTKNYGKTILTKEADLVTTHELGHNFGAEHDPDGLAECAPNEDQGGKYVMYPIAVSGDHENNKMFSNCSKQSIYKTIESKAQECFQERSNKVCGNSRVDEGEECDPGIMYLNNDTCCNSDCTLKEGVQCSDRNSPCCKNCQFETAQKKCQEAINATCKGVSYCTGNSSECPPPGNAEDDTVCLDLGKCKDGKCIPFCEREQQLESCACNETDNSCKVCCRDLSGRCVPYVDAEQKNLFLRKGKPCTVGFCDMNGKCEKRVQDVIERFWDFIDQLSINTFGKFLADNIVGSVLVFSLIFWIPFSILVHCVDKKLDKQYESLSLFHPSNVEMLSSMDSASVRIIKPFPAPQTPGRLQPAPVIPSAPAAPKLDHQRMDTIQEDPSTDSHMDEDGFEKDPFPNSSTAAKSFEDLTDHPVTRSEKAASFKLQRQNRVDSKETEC
Text: as §1, §2

[5] = biological target: T2, ADAM8; test: Kinetic analysis of the affinity of ADAM8 for cleavage of 4 peptides; format: biochemical; settings: for K0.5 (substrate concentration at which the enzyme activity was 50% of the Vmax): ADAM8, 30 minutes at room temperature, by inspection of the fitted curves; for Cleavage site of ADAM8 within the peptide: carot marks the cleavage site
Method: To confirm the screening assay, ADAM8 was further analyzed for its catalytic rate for 4 different peptides. The assay was performed by diluting the ADAM8 in assay buffer, 10 mM HEPES, pH 7.5, containing 0.001% Brij35. […] The assay was run for 30 minutes at room temperature. […] The curves were fitted to the data with the program Grafit (Erithacus Software). […] The Vmax for each substrate was calculated by non-linear fitting of the data. The substrate concentration at which the enzyme activity was 50% of the Vmax (designated “K0.5”) was determined by inspection of the fitted curves. Table 2 also provides the cleavage site of ADAM8 within each peptide, as indicated by a carot within the peptide sequence.

[6] = biological target: T5, CatE1 FRET peptide X-KPAKFFRL-Z (not fully specified)
T5 chain: KPAKFFRL

With “X-PLAQAVRSSS-Z ({Edans‑E}-PLAQAVRSSS-{dabcyl‑K}) [TNFα, FRET peptide substrate; X = Edans-E; Z = dabcyl-K]” as the molecule, how does the “Relative proteolytic activity ADAM15” value [1] read?
The value was “***”.

And the “Relative proteolytic activity ADAM8” value [2]?
Its value is “***”.

What about the “Relative proteolytic activity MDC-L” value [3] of the same molecule?
The value was “***”.

What about the “Relative proteolytic activity ADAM17” value [4] of the same molecule?
Its value is “***”.

What about the “K0.5 (substrate concentration at which the enzyme activity was 50% of the Vmax)” value [5] of the same molecule?
The value was 5 µM.

And the “Cleavage site of ADAM8 within the peptide” value (“Cleavage site” below) [5]?
The value was “XPLAQAVRS^SSZ”.

How did the “Relative proteolytic activity ADAM15” value [1] turn out when “X-PSAAQTARQHP-Z ({Edans‑E}-PSAAQTARQHP-{dabcyl‑K}) [TNFB2, FRET peptide substrate; X = Edans-E; Z = dabcyl-K]” was run?
The value was “***”.

And the “Relative proteolytic activity ADAM8” value [2]?
The value was “***”.

And the “Relative proteolytic activity MDC-L” value [3]?
The value was “***”.

And the “Relative proteolytic activity ADAM17” value [4]?
Its value is “(—)”.

Which results are given for “X-RFAQAQQQLP-Z ({Edans‑E}-RFAQAQQQLP-{dabcyl‑K}) [CD27L, FRET peptide substrate; X = Edans-E; Z = dabcyl-K]”?
Relative proteolytic activity ADAM15 [1]: ****; Relative proteolytic activity ADAM8 [2]: ****; Relative proteolytic activity MDC-L [3]: ****; Relative proteolytic activity ADAM17 [4]: (—); K0.5 (substrate concentration at which the enzyme activity was 50% of the Vmax) [5]: 5 µM; Cleavage site of ADAM8 within the peptide [5]: XRFAQA^QQQLPZ

How did the “Relative proteolytic activity ADAM15” value [1] turn out when “Z-RGVVNASSRLAK-X ({dabcyl‑K}-RGVVNASSRLAK-{Edans‑E}) [KAS-1, FRET peptide substrate; X = Edans-E; Z = dabcyl-K]” was run?
Its value is “***”.

And the “Relative proteolytic activity ADAM8” value [2]?
Its value is “***”.

And the “Relative proteolytic activity MDC-L” value [3]?
The value was “***”.

What about the “Relative proteolytic activity ADAM17” value [4] of the same molecule?
Its value is “(—)”.

For “X-RTAAVFRP-Z ({Edans‑E}-RTAAVFRP-{dabcyl‑K}) [AD8P, FRET peptide substrate; X = Edans-E; Z = dabcyl-K]”, which “Relative proteolytic activity ADAM15” value [1] is on record?
Its value is “*”.

And the “Relative proteolytic activity ADAM8” value [2]?
The value was “*”.

And the “Relative proteolytic activity MDC-L” value [3]?
The value was “*”.

What about the “Relative proteolytic activity ADAM17” value [4] of the same molecule?
The value was “*****”.

How did the “Relative proteolytic activity ADAM15” value [1] turn out when “X-KPAKFFRL-Z ({Edans‑E}-KPAKFFRL-{dabcyl‑K}) [CatEl, FRET peptide substrate; X = Edans-E; Z = dabcyl-K]” was run?
Its value is “*****”.

And the “Relative proteolytic activity ADAM8” value [2]?
Its value is “*****”.

What about the “Relative proteolytic activity MDC-L” value [3] of the same molecule?
The value was “*****”.

And the “Relative proteolytic activity ADAM17” value [4]?
The value was “(—)”.

And the “K0.5 (substrate concentration at which the enzyme activity was 50% of the Vmax)” value [5]?
Its value is 2.5 µM.

What about the “Cleavage site” value [5] of the same molecule?
The value was “XKPAKF^FRLZ”.

Which “Relative proteolytic activity ADAM15” value [1] does the source give for “X-PPVAASSLRN-Z ({Edans‑E}-PPVAASSLRN-{dabcyl‑K}) [KL1, FRET peptide substrate; X = Edans-E; Z = dabcyl-K]” here?
Its value is “***”.

What about the “Relative proteolytic activity ADAM8” value [2] of the same molecule?
Its value is “***”.

And the “Relative proteolytic activity MDC-L” value [3]?
Its value is “***”.

And the “Relative proteolytic activity ADAM17” value [4]?
Its value is “(—)”.

Which results are given for “Z-RPLGLAR-X ({dabcyl‑K}-RPLGLAR-{Edans‑E}) [Mat, FRET peptide substrate; X = Edans-E; Z = dabcyl-K]”?
Relative proteolytic activity ADAM15 [1]: ***; Relative proteolytic activity ADAM8 [2]: ***; Relative proteolytic activity MDC-L [3]: ***; Relative proteolytic activity ADAM17 [4]: ***

With “X-RVRRALPS-Z ({Edans‑E}-RVRRALPS-{dabcyl‑K}) [AD8P2, FRET peptide substrate; X = Edans-E; Z = dabcyl-K]” as the molecule, how does the “Relative proteolytic activity ADAM15” value [1] read?
The value was “***”.

And the “Relative proteolytic activity ADAM8” value [2]?
The value was “***”.

What about the “Relative proteolytic activity MDC-L” value [3] of the same molecule?
The value was “***”.

What about the “Relative proteolytic activity ADAM17” value [4] of the same molecule?
Its value is “(—)”.

How did the “Relative proteolytic activity ADAM15” value [1] turn out when “X-KPAAFFRL-Z ({Edans‑E}-KPAAFFRL-{dabcyl‑K}) [CatE, FRET peptide substrate; X = Edans-E; Z = dabcyl-K]” was run?
The value was “*****”.

And the “Relative proteolytic activity ADAM8” value [2]?
The value was “*****”.

And the “Relative proteolytic activity MDC-L” value [3]?
Its value is “*****”.

What about the “Relative proteolytic activity ADAM17” value [4] of the same molecule?
The value was “(—)”.

And the “K0.5 (substrate concentration at which the enzyme activity was 50% of the Vmax)” value [5]?
Its value is 5 µM.

What about the “Cleavage site” value [5] of the same molecule?
Its value is “XKPAAF^FRLZ”.

“Z-LAQAVRSSSR-X ({dabcyl‑K}-LAQAVRSSSR-{Edans‑E}) [TNFα(−4 + 6), FRET peptide substrate; X = Edans-E; Z = dabcyl-K]” was tested. Which “Relative proteolytic activity ADAM15” value [1] did it give?
The value was “*”.

And the “Relative proteolytic activity ADAM8” value [2]?
Its value is “*”.

And the “Relative proteolytic activity MDC-L” value [3]?
The value was “*”.

What about the “Relative proteolytic activity ADAM17” value [4] of the same molecule?
The value was “***”.

B1: soluble recombinant human ADAM8 with pro- and protease domains and C-terminal FLAG epitope (inactive precursor form) (protein)
chain: IAPSRPWALMEQYEVVLPWRLPGPRVRRALPSHLGLHPERVSYVLGATGHNFTLHLRKNRDLLGSGYTETYTAANGSEVTEQPRGQDHCFYQGHVEGYPDSAASLSTCAGLRGFFQVGSDLHLIEPLDEGGEGGRHAVYQAEHLLQTAGTCGVSDDSLGSLLGPRTAAVFRPRPGDSLPSRETRYVELYVVVDNAEFQMLGSEAAVRHRVLEVVNHVDKLYQKLNFRVVLVGLEIWNSQDRFHVSPDPSVTLENLLTWQARQRTRRHLHDNVQLITGVDFTGTTVGFARVSAMCSHSSGAVNQDHSKNPVGVACTMAHEMGHNLGMDHDENVQGCRCQERFEAGRCIMAGSIGSSFPRMFSDCSQAYLESFLERPQSVCLANAP
B1 was tested. Which “fluorometric proteolytic assay / FRET peptide zymography” value [6] did it give?
The value was “showed no activity in the fluorometric proteolytic assay”.
